In PMC6011876, “Characterization of the ATPase FlaI of the motor complex of the Pyrococcus furiosus archaellum and its interactions between the ATP-binding protein FlaH” (PeerJ, 2018):
Like-named read-outs stand apart in the source and are kept apart here. One block for each molecule: values may come before it.

What was measured:
[1] = target: T1, Pyrococcus furiosus FlaH (Pyrococcus furiosus, fluorescently labeled (in the microscale thermophoresis)); assay: MST; 28 nM fluorescently labeled PfFlaH titrated with 1.3 nM-22.5 µM Pf-CTD or 5.6 nM-11.6 µM Pf-NTD; 20 mM Tris HCl pH 8.0, 150 mM NaCl, 0.05% Tween-20; Monolith NT.115 Pico; fitted to the Hill equation
T1 chain: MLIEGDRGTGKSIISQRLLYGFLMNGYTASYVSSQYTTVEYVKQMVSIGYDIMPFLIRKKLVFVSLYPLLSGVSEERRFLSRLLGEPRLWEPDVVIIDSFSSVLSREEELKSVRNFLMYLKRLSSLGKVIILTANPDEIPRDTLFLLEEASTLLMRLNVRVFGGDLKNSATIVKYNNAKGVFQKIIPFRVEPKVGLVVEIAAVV

[2] = target: T2, PfFlaI (Pyrococcus furiosus, UniProt Q8U3X0); assay: fluorescence titration (excitation […] nm, emission […] nm); assay type: binding; details: 5 mM MgCl2, 20 mM Tris HCl pH 8.0, 150 mM NaCl; 20 °C; stoichiometric titration, two sites per hexamer; labelled compound
T2 construct: gene PF0331; full length, His-tagged, overexpressed in E. coli Rosetta (DE3), 64 kDa subunit, nucleotide-free homohexamer
T2 sequence (Q8U3X0 entry or part of it): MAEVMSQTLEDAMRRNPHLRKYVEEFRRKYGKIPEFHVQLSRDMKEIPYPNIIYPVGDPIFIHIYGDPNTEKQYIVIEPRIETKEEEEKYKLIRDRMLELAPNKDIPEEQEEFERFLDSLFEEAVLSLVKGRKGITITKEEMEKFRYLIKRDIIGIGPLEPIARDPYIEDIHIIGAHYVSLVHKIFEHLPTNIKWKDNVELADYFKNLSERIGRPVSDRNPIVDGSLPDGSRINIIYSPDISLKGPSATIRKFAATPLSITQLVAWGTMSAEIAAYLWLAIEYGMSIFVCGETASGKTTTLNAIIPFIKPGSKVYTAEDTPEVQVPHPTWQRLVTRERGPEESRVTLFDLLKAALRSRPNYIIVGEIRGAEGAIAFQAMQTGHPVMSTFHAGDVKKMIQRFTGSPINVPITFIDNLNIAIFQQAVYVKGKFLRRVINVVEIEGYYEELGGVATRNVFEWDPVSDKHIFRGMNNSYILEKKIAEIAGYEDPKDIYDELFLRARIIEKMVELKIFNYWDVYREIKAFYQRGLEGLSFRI

[3] = target: T2, PfFlaI; assay: fluorescence competition against bound MANT-ATP; assay type: binding; details: 20 nM PfFlaI, 10 nM MANT-ATP; 5 mM MgCl2, 20 mM Tris HCl pH 8.0, 150 mM NaCl; 20 °C; Hill fit n = 0.67
[4] = target: Pyrococcus furiosus FlaI (Pyrococcus furiosus)
[5] = target: Pyrococcus furiosus FlaI (Pyrococcus furiosus); remark: listed apart in the source
[6] = target: Pyrococcus furiosus FlaI (Pyrococcus furiosus); assay: SEC; Superdex 200 10/300 GL; 500 µl of protein at 1 mg/ml; 20 mM Tris HCl pH 8.0, 150 mM NaCl; no nucleotide added; fractions on SDS-PAGE

Kd [1]: > 8000 nM
Molecule: N-terminal domain of Pyrococcus furiosus FlaI (domain or fragment)

Molecule: CNc1ccccc1C(=O)O[C@H]1[C@@H](O)[C@H](n2cnc3c(N)ncnc32)O[C@@H]1COP(=O)(O)OP(=O)(O)OP(=O)(O)O (mixture of isomers) [MANT-ATP, 2′-/3′-O-(N-methylanthraniloyl) adenosine 5′-triphosphate]
fluorescence titration (excitation 285 nm, emission 450 nm) [2]: only two of the ATP binding sites in the hexamer are available for binding of MANT-ATP

IC50 [3]: 260 nM
Molecule: Nc1ncnc2c1ncn2[C@@H]1O[C@H](COP(=O)(O)OP(=O)(O)OP(=O)(O)O)[C@@H](O)[C@H]1O [ATP]

ATPase activity at 70 °C of 1 µM PfFlaI with increasing concentrations of PfFlaH; ratio at maximal stimulation (PfFlaH per PfFlaI) [4]: 1 | ATPase activity of PfFlaI at 70 °C (malachite green) on addition of PfFlaH, proteins at 1 µM [5]: 2 fold
Molecule: Pyrococcus furiosus FlaH (natural protein)

stoichiometry N [6]: 6
Molecule: Pyrococcus furiosus FlaI (enzyme)

Kd ([1]; both partners purified): 100 nM
B1: C-terminal domain of Pyrococcus furiosus FlaI (domain or fragment)
chain: LSITQLVAWGTMSAEIAAYLWLAIEYGMSIFVCGETASGKTTTLNAIIPFIKPGSKVYTAEDTPEVQVPHPTWQRLVTRERGPEESRVTLFDLLKAALRSRPNYIIVGEIRGAEGAIAFQAMQTGHPVMSTFHAGDVKKMIQRFTGSPINVPITFIDNLNIAIFQQAVYVKGKFLRRVINVVEIEGYYEELGGVATRNVFEWDPVSDKHIFRGMNNSYILEKKIAEIAGYEDPKDIYDELFLRARIIEKMVELKIFNYWDVYREIKAFYQRGLEGLSFRI
